Legend:
[1] = molecular target: the molecule itself; test: blue-native gel, PNPASE immunoblot (self-assembly)
Description: Listed are the in vitro effects of mutations on 3′ polymerase and RNA degrading activities as reported by Portnoy et al. (2008) RNA 14: 297-309. […] Radiolabeled RNase P RNA was incubated with isolated yeast mitochondria expressing an empty vector or the listed PNPASE constructs. […] A PORIN immunoblot confirms the co-localization of PNPASE WT and mutants in yeast mitochondria. The assembly state of WT and point mutant PNPASE was determined by solubilization with 1% digitonin and separation on a 6-16% BN gel, followed by PNPASE immunoblot. FIG. 11B (upper) show gels of WT and S484A PNPASE purified from yeast mitochondria using immunoprecipitation. FIG. 11B (lower) show gels of WT or S484A mutant PNPASE was incubated with radiolabeled RNase P RNA for 10 min at 25° C. to assess degradation activity. The asterisk marks degradation products. FIG. 11 C (left) is a gel showing the stability of RNase P RNA imported into mitochondria.
The assembly state of PNPASE was also investigated. […] Soluble proteins were separated on a 6-16% BN gel and PNPASE was detected by immunoblot. […] The PNPASE-HisPC were solubilized with 1% digitonin (Dig) or 0.5% dodecylmaltoside (DDM) and the soluble proteins were separated on a 6-16% BN gel and detected by immunoblot.

[2] = molecular target: the molecule itself; test: 1% digitonin, 6-16% blue-native gel, PNPASE immunoblot (self-assembly)
Description: Radiolabeled RNase P RNA was incubated with isolated yeast mitochondria expressing an empty vector or the listed PNPASE constructs. […] A PORIN immunoblot confirms the co-localization of PNPASE WT and mutants in yeast mitochondria. The assembly state of WT and point mutant PNPASE was determined by solubilization with 1% digitonin and separation on a 6-16% BN gel, followed by PNPASE immunoblot. FIG. 11B (upper) show gels of WT and S484A PNPASE purified from yeast mitochondria using immunoprecipitation. FIG. 11B (lower) show gels of WT or S484A mutant PNPASE was incubated with radiolabeled RNase P RNA for 10 min at 25° C. to assess degradation activity. The asterisk marks degradation products. FIG. 11 C (left) is a gel showing the stability of RNase P RNA imported into mitochondria.
To determine whether the RNA import or stabilization activity of PNPASE was separable from its RNA processing activities, RNase P RNA import was studied when different PNPASE mutants were expressed in yeast mitochondria (FIG. 11A). The point mutants generated and tested were based on prior studies (Portnoy et al. (2008) RNA 14: 297-309). Mutants D135G and S484A lacked poly-A polymerase and RNA degradation activities in vitro. […] Of the four mutants, PNPASE S484A and R445E/R446E supported the import or stabilization of RNase P RNA, whereas mutants D135G and D544G were defective in this function (FIG. 11A). Based on the prior studies of others, it was expected that mutant D135G would fail to form a trimeric complex from prior studies (Portnoy et al. (2008) RNA 14: 297-309).

Row | Protein | binding result [1] | binding result [2]
1 | human PNPASE (polynucleotide phosphorylase) expressed in yeast mitochondria (enzyme, UniProt Q8TCS8 46-783, looked up, Homo-oligomer of about 240 kDa on blue-native gels; also called hPNP; WT PNPASE) AVAVDLGNRKLEISSGKLARFADGSAVVQSGDTAVMVTAVSKTKPSPSQFMPLVVDYRQKAAAAGRIPTNYLRREIGTSDKEILTSRIIDRSIRPLFPAGYFYDTQVLCNLLAVDGVNEPDVLAINGASVALSLSDIPWNGPVGAVRIGIIDGEYVVNPTRKEMSSSTLNLVVAGAPKSQIVMLEASAENILQQDFCHAIKVGVKYTQQIIQGIQQLVKETGVTKRTPQKLFTPSPEIVKYTHKLAMERLYAVFTDYEHDKVSRDEAVNKIRLDTEEQLKEKFPEADPYEIIESFNVVAKEVFRSIVLNEYKRCDGRDLTSLRNVSCEVDMFKTLHGSALFQRGQTQVLCTVTFDSLESGIKSDQVITAINGIKDKNFMLHYEFPPYATNEIGKVTGLNRRELGHGALAEKALYPVIPRDFPFTIRVTSEVLESNGSSSMASACGGSLALMDSGVPISSAVAGVAIGLVTKTDPEKGEIEDYRLLTDILGIEDYNGDMDFKIAGTNKGITALQADIKLPGIPIKIVMEAIQQASVAKKEILQIMNKTISKPRASRKENGPVVETVQVPLSKRAKFVGPGGYNLKKLQAETGVTISQVDEETFSVFAPTPSAMHEARDFITEICKDDQEQQLEFGAVYTATITEIRDTGVMVKLYPNMTAVLLHNTQLDQRKIKHPTALGLEVGQEIQVKYFGRDPADGRMRLSRKVLQSPATTVVRTLNDRSSIVMGEPISQSSSNSQ | binds | 
2 | human PNPASE mutant D544G (enzyme, UniProt Q8TCS8 46-783, looked up, Point mutants are based on Portnoy et al. (2008); The numbering scheme is not further defined) AVAVDLGNRKLEISSGKLARFADGSAVVQSGDTAVMVTAVSKTKPSPSQFMPLVVDYRQKAAAAGRIPTNYLRREIGTSDKEILTSRIIDRSIRPLFPAGYFYDTQVLCNLLAVDGVNEPDVLAINGASVALSLSDIPWNGPVGAVRIGIIDGEYVVNPTRKEMSSSTLNLVVAGAPKSQIVMLEASAENILQQDFCHAIKVGVKYTQQIIQGIQQLVKETGVTKRTPQKLFTPSPEIVKYTHKLAMERLYAVFTDYEHDKVSRDEAVNKIRLDTEEQLKEKFPEADPYEIIESFNVVAKEVFRSIVLNEYKRCDGRDLTSLRNVSCEVDMFKTLHGSALFQRGQTQVLCTVTFDSLESGIKSDQVITAINGIKDKNFMLHYEFPPYATNEIGKVTGLNRRELGHGALAEKALYPVIPRDFPFTIRVTSEVLESNGSSSMASACGGSLALMDSGVPISSAVAGVAIGLVTKTDPEKGEIEDYRLLTDILGIEDYNGDMGFKIAGTNKGITALQADIKLPGIPIKIVMEAIQQASVAKKEILQIMNKTISKPRASRKENGPVVETVQVPLSKRAKFVGPGGYNLKKLQAETGVTISQVDEETFSVFAPTPSAMHEARDFITEICKDDQEQQLEFGAVYTATITEIRDTGVMVKLYPNMTAVLLHNTQLDQRKIKHPTALGLEVGQEIQVKYFGRDPADGRMRLSRKVLQSPATTVVRTLNDRSSIVMGEPISQSSSNSQ |  | binds
3 | human PNPASE double mutant R445E/R446E (enzyme, UniProt Q8TCS8 46-783, looked up, Point mutants are based on Portnoy et al. (2008); The numbering scheme is not further defined) AVAVDLGNRKLEISSGKLARFADGSAVVQSGDTAVMVTAVSKTKPSPSQFMPLVVDYRQKAAAAGRIPTNYLRREIGTSDKEILTSRIIDRSIRPLFPAGYFYDTQVLCNLLAVDGVNEPDVLAINGASVALSLSDIPWNGPVGAVRIGIIDGEYVVNPTRKEMSSSTLNLVVAGAPKSQIVMLEASAENILQQDFCHAIKVGVKYTQQIIQGIQQLVKETGVTKRTPQKLFTPSPEIVKYTHKLAMERLYAVFTDYEHDKVSRDEAVNKIRLDTEEQLKEKFPEADPYEIIESFNVVAKEVFRSIVLNEYKRCDGRDLTSLRNVSCEVDMFKTLHGSALFQRGQTQVLCTVTFDSLESGIKSDQVITAINGIKDKNFMLHYEFPPYATNEIGKVTGLNEEELGHGALAEKALYPVIPRDFPFTIRVTSEVLESNGSSSMASACGGSLALMDSGVPISSAVAGVAIGLVTKTDPEKGEIEDYRLLTDILGIEDYNGDMDFKIAGTNKGITALQADIKLPGIPIKIVMEAIQQASVAKKEILQIMNKTISKPRASRKENGPVVETVQVPLSKRAKFVGPGGYNLKKLQAETGVTISQVDEETFSVFAPTPSAMHEARDFITEICKDDQEQQLEFGAVYTATITEIRDTGVMVKLYPNMTAVLLHNTQLDQRKIKHPTALGLEVGQEIQVKYFGRDPADGRMRLSRKVLQSPATTVVRTLNDRSSIVMGEPISQSSSNSQ |  | binds
4 | human PNPASE mutant D135G (enzyme, UniProt Q8TCS8 46-783, looked up, Point mutants are based on Portnoy et al. (2008); The numbering scheme is not further defined) AVAVDLGNRKLEISSGKLARFADGSAVVQSGDTAVMVTAVSKTKPSPSQFMPLVVDYRQKAAAAGRIPTNYLRREIGTSDKEILTSRIIGRSIRPLFPAGYFYDTQVLCNLLAVDGVNEPDVLAINGASVALSLSDIPWNGPVGAVRIGIIDGEYVVNPTRKEMSSSTLNLVVAGAPKSQIVMLEASAENILQQDFCHAIKVGVKYTQQIIQGIQQLVKETGVTKRTPQKLFTPSPEIVKYTHKLAMERLYAVFTDYEHDKVSRDEAVNKIRLDTEEQLKEKFPEADPYEIIESFNVVAKEVFRSIVLNEYKRCDGRDLTSLRNVSCEVDMFKTLHGSALFQRGQTQVLCTVTFDSLESGIKSDQVITAINGIKDKNFMLHYEFPPYATNEIGKVTGLNRRELGHGALAEKALYPVIPRDFPFTIRVTSEVLESNGSSSMASACGGSLALMDSGVPISSAVAGVAIGLVTKTDPEKGEIEDYRLLTDILGIEDYNGDMDFKIAGTNKGITALQADIKLPGIPIKIVMEAIQQASVAKKEILQIMNKTISKPRASRKENGPVVETVQVPLSKRAKFVGPGGYNLKKLQAETGVTISQVDEETFSVFAPTPSAMHEARDFITEICKDDQEQQLEFGAVYTATITEIRDTGVMVKLYPNMTAVLLHNTQLDQRKIKHPTALGLEVGQEIQVKYFGRDPADGRMRLSRKVLQSPATTVVRTLNDRSSIVMGEPISQSSSNSQ | binds | 
5 | human PNPASE mutant S484A (enzyme, UniProt Q8TCS8 46-783, looked up, Point mutants are based on Portnoy et al. (2008); The numbering scheme is not further defined) AVAVDLGNRKLEISSGKLARFADGSAVVQSGDTAVMVTAVSKTKPSPSQFMPLVVDYRQKAAAAGRIPTNYLRREIGTSDKEILTSRIIDRSIRPLFPAGYFYDTQVLCNLLAVDGVNEPDVLAINGASVALSLSDIPWNGPVGAVRIGIIDGEYVVNPTRKEMSSSTLNLVVAGAPKSQIVMLEASAENILQQDFCHAIKVGVKYTQQIIQGIQQLVKETGVTKRTPQKLFTPSPEIVKYTHKLAMERLYAVFTDYEHDKVSRDEAVNKIRLDTEEQLKEKFPEADPYEIIESFNVVAKEVFRSIVLNEYKRCDGRDLTSLRNVSCEVDMFKTLHGSALFQRGQTQVLCTVTFDSLESGIKSDQVITAINGIKDKNFMLHYEFPPYATNEIGKVTGLNRRELGHGALAEKALYPVIPRDFPFTIRVTSEVLESNGSSAMASACGGSLALMDSGVPISSAVAGVAIGLVTKTDPEKGEIEDYRLLTDILGIEDYNGDMDFKIAGTNKGITALQADIKLPGIPIKIVMEAIQQASVAKKEILQIMNKTISKPRASRKENGPVVETVQVPLSKRAKFVGPGGYNLKKLQAETGVTISQVDEETFSVFAPTPSAMHEARDFITEICKDDQEQQLEFGAVYTATITEIRDTGVMVKLYPNMTAVLLHNTQLDQRKIKHPTALGLEVGQEIQVKYFGRDPADGRMRLSRKVLQSPATTVVRTLNDRSSIVMGEPISQSSSNSQ |  | binds

— patent US20120283317A1 (University of California, published 2012)
